Results taken from publication PMC9482650, “Quantitative fragmentomics allow affinity mapping of interactomes” (Nature Communications, 2022).

Legend:
Assay in all cases: holdup assay
Set-up in all cases: key: below the threshold = too weak to quantify, mostly under pKd 3.1 to 4
Conditions in all cases: plain residues with an end cap or a label only (N-terminal biotin on a linker: ado-ado)
APBA3_1, O96018 = target: T1, APBA3_1, O96018
T1 sequence (O96018 389-490, limits assumed, looked up): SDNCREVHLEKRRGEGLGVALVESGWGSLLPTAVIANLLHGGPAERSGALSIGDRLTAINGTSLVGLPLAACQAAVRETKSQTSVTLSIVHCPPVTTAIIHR

CASK, O14936 = target: CASK, O14936
DFNB31_3, Q9P202 = target: T2, DFNB31_3, Q9P202
T2 sequence (Q9P202 811-907, limits assumed, looked up): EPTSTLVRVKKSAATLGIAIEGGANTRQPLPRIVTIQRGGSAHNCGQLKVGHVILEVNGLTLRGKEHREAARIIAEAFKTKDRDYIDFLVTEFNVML

DLG2_2, Q15700 = target: DLG2_2, Q15700
DLG2_3, Q15700 = target: DLG2_3, Q15700
DLG5_1, Q8TDM6 = target: DLG5_1, Q8TDM6
FRMPD2_2, Q68DX3 = target: FRMPD2_2, Q68DX3
FRMPD4, Q14CM0 = target: FRMPD4, Q14CM0
GIPC2, Q8TF65 = target: GIPC2, Q8TF65
GOPC, Q9HD26 = target: GOPC, Q9HD26
GRID2IP_1, A4D2P6 = target: GRID2IP_1, A4D2P6
GRIP2_6, Q9C0E4 = target: GRIP2_6, Q9C0E4
IL16_4, Q14005 = target: IL16_4, Q14005
Inadl_1, Q8NI35 = target: Inadl_1, Q8NI35
LDB3, O75112 = target: LDB3, O75112
LIN7C, Q9NUP9 = target: T3, LIN7C, Q9NUP9
T3 sequence (Q9NUP9 88-185, limits assumed, looked up): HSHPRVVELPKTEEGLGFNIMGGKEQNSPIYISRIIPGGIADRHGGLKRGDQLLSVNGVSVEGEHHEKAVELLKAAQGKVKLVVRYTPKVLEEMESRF

MAGI2_2, Q86UL8 = target: MAGI2_2, Q86UL8
MAGI2_3, Q86UL8 = target: MAGI2_3, Q86UL8
MPDZ_10, O75970 = target: T4, MPDZ_10, O75970
T4 sequence (O75970 1624-1722, limits assumed, looked up): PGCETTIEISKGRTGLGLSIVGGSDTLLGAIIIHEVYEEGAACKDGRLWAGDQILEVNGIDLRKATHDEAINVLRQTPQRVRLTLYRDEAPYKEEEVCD

MPDZ_12, O75970 = target: T5, MPDZ_12, O75970
T5 sequence (O75970 1857-1958, limits assumed, looked up): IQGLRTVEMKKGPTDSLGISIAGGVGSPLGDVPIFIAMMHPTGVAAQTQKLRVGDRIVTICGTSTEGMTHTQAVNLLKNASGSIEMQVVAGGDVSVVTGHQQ

NHERF2_2, Q15599 = target: NHERF2_2, Q15599
NHERF3_1, Q5T2W1 = target: T6, NHERF3_1, Q5T2W1
T6 sequence (Q5T2W1 4-100, limits assumed, looked up): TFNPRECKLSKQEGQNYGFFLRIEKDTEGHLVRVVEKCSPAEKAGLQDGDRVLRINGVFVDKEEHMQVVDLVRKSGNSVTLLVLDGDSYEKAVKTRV

PARD3B_1, Q8TEW8 = target: T7, PARD3B_1, Q8TEW8
T7 sequence (Q8TEW8 196-299, limits assumed, looked up): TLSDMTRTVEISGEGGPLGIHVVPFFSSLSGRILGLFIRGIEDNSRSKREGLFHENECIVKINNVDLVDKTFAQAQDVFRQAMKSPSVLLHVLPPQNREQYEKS

RAPGEF6, Q8TEU7 = target: T8, RAPGEF6, Q8TEU7
T8 sequence (Q8TEU7 525-625, limits assumed, looked up): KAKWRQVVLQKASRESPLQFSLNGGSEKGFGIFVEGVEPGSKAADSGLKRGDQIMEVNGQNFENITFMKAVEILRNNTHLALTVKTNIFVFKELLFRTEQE

SCRIB_1, Q14160 = target: SCRIB_1, Q14160
SNTA1, Q13424 = target: T9, SNTA1, Q13424
T9 sequence (Q13424 82-180, limits assumed, looked up): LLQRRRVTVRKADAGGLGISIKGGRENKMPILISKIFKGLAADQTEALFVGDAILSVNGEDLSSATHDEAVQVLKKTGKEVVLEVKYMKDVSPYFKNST

SNTG1, Q9NSN8 = target: T10, SNTG1, Q9NSN8
T10 sequence (Q9NSN8 52-150, limits assumed, looked up): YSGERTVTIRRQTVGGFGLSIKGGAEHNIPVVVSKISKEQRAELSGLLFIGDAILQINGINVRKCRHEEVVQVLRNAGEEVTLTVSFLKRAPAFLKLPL

TJP1_3, Q07157 = target: TJP1_3, Q07157
Chain of TJP1_3, Q07157 (Q07157 416-512): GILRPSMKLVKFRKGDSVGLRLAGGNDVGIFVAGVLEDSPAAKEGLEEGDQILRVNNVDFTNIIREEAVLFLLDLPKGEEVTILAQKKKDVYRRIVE

Chain of NHERF2_2, Q15599 (Q15599 142-238): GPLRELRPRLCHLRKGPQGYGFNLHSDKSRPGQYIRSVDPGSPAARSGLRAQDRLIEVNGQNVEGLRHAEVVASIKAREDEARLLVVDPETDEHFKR
Chain of MAGI2_2, Q86UL8 (Q86UL8 410-522): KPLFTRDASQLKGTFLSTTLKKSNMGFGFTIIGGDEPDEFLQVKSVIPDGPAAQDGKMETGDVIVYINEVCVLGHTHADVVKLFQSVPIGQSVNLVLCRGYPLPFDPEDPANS
Chain of CASK, O14936 (O14936 487-570): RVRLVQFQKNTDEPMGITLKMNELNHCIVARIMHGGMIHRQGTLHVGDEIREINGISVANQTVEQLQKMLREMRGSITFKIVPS
Chain of DLG5_1, Q8TDM6 (Q8TDM6 617-713): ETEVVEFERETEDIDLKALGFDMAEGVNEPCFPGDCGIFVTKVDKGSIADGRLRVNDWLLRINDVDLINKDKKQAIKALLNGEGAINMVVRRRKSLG
Chain of MAGI2_3, Q86UL8 (Q86UL8 600-682): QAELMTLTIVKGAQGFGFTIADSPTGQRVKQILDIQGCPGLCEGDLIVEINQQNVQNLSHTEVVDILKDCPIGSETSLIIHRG
Chain of FRMPD2_2, Q68DX3 (Q68DX3 944-1038): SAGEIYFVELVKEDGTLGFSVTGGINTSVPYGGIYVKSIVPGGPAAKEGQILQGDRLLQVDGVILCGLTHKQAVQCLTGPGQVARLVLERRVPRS
Chain of Inadl_1, Q8NI35 (Q8NI35 113-229): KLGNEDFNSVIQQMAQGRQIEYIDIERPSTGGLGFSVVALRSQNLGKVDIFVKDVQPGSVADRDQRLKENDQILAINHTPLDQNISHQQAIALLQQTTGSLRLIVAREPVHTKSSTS
Chain of SCRIB_1, Q14160 (Q14160 718-814): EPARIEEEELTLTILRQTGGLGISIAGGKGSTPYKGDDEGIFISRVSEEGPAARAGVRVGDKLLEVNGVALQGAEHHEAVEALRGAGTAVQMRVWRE
Chain of IL16_4, Q14005 (Q14005 1229-1329): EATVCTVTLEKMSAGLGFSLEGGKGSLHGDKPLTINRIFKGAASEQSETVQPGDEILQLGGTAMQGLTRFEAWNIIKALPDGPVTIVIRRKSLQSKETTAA
Chain of FRMPD4, Q14CM0 (Q14CM0 67-160): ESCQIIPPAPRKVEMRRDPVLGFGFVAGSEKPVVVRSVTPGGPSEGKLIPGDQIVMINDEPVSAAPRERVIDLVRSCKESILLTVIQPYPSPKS
Chain of GRID2IP_1, A4D2P6 (A4D2P6 1-87): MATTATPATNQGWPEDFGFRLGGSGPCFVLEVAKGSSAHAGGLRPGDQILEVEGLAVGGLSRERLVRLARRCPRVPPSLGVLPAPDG
Chain of LDB3, O75112 (O75112 1-94): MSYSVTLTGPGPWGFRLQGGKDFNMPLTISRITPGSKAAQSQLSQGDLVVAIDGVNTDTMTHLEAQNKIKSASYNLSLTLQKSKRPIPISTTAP
Chain of GIPC2, Q8TF65 (Q8TF65 112-203): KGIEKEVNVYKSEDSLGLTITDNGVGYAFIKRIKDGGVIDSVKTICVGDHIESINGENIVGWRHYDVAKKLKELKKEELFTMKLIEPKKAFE
Chain of GRIP2_6, Q9C0E4 (Q9C0E4 648-740): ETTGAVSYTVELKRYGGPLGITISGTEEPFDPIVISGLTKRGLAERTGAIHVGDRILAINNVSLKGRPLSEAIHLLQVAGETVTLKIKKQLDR

ARESQKVSHV [FAM110B, Q8TC76]
pKd (APBA3_1, O96018): below the threshold | pKd (CASK, O14936): below the threshold | pKd (DFNB31_3, Q9P202): below the threshold | pKd (DLG2_2, Q15700): 4.24 | pKd (DLG2_3, Q15700): 3.62 | pKd (DLG5_1, Q8TDM6): below the threshold | pKd (FRMPD2_2, Q68DX3): 4.31 | pKd (FRMPD4, Q14CM0): below the threshold | pKd (GIPC2, Q8TF65): below the threshold | pKd (GOPC, Q9HD26): 3.98 | pKd (GRID2IP_1, A4D2P6): below the threshold | pKd (GRIP2_6, Q9C0E4): below the threshold | pKd (IL16_4, Q14005): below the threshold | pKd (Inadl_1, Q8NI35): below the threshold | pKd (LDB3, O75112): below the threshold | pKd (LIN7C, Q9NUP9): below the threshold | pKd (MAGI2_2, Q86UL8): 4.87 | pKd (MAGI2_3, Q86UL8): 4.25 | pKd (MPDZ_10, O75970): 4.08 | pKd (MPDZ_12, O75970): below the threshold | pKd (NHERF2_2, Q15599): below the threshold | pKd (NHERF3_1, Q5T2W1): below the threshold | pKd (PARD3B_1, Q8TEW8): below the threshold | pKd (RAPGEF6, Q8TEU7): below the threshold | pKd (SCRIB_1, Q14160): 3.74 | pKd (SNTA1, Q13424): 4.25 | pKd (SNTG1, Q9NSN8): 4.34 | pKd (TJP1_3, Q07157): below the threshold

TNSRHGETTV [FZD2, Q14332]
pKd (APBA3_1, O96018): below the threshold | pKd (CASK, O14936): below the threshold | pKd (DFNB31_3, Q9P202): below the threshold | pKd (DLG2_2, Q15700): 4.81 | pKd (DLG2_3, Q15700): 4.38 | pKd (DLG5_1, Q8TDM6): 3.48 | pKd (FRMPD2_2, Q68DX3): 3.54 | pKd (FRMPD4, Q14CM0): below the threshold | pKd (GIPC2, Q8TF65): 4.22 | pKd (GOPC, Q9HD26): 3.88 | pKd (GRID2IP_1, A4D2P6): below the threshold | pKd (GRIP2_6, Q9C0E4): below the threshold | pKd (IL16_4, Q14005): below the threshold | pKd (Inadl_1, Q8NI35): below the threshold | pKd (LDB3, O75112): below the threshold | pKd (LIN7C, Q9NUP9): 4.6 | pKd (MAGI2_2, Q86UL8): 4.59 | pKd (MAGI2_3, Q86UL8): 3.53 | pKd (MPDZ_10, O75970): below the threshold | pKd (MPDZ_12, O75970): below the threshold | pKd (NHERF2_2, Q15599): below the threshold | pKd (NHERF3_1, Q5T2W1): below the threshold | pKd (PARD3B_1, Q8TEW8): below the threshold | pKd (RAPGEF6, Q8TEU7): below the threshold | pKd (SCRIB_1, Q14160): 4.25 | pKd (SNTA1, Q13424): 4.64 | pKd (SNTG1, Q9NSN8): 4.27 | pKd (TJP1_3, Q07157): below the threshold

STKRKLASAV [NCF1, P14598]
pKd (APBA3_1, O96018): below the threshold | pKd (CASK, O14936): below the threshold | pKd (DFNB31_3, Q9P202): 3.85 | pKd (DLG2_2, Q15700): 4.16 | pKd (DLG2_3, Q15700): 4.09 | pKd (DLG5_1, Q8TDM6): below the threshold | pKd (FRMPD2_2, Q68DX3): below the threshold | pKd (FRMPD4, Q14CM0): below the threshold | pKd (GIPC2, Q8TF65): below the threshold | pKd (GOPC, Q9HD26): below the threshold | pKd (GRID2IP_1, A4D2P6): below the threshold | pKd (GRIP2_6, Q9C0E4): below the threshold | pKd (IL16_4, Q14005): below the threshold | pKd (Inadl_1, Q8NI35): below the threshold | pKd (LDB3, O75112): below the threshold | pKd (LIN7C, Q9NUP9): below the threshold | pKd (MAGI2_2, Q86UL8): 5.44 | pKd (MAGI2_3, Q86UL8): below the threshold | pKd (MPDZ_10, O75970): 3.64 | pKd (MPDZ_12, O75970): 3.52 | pKd (NHERF2_2, Q15599): below the threshold | pKd (NHERF3_1, Q5T2W1): below the threshold | pKd (PARD3B_1, Q8TEW8): below the threshold | pKd (RAPGEF6, Q8TEU7): below the threshold | pKd (SCRIB_1, Q14160): below the threshold | pKd (SNTA1, Q13424): below the threshold | pKd (SNTG1, Q9NSN8): below the threshold | pKd (TJP1_3, Q07157): below the threshold

SPDRDRESIV [SCN5A, Q14524]
pKd (APBA3_1, O96018): below the threshold | pKd (CASK, O14936): below the threshold | pKd (DFNB31_3, Q9P202): 4.06 | pKd (DLG2_2, Q15700): 4.58 | pKd (DLG2_3, Q15700): below the threshold | pKd (DLG5_1, Q8TDM6): below the threshold | pKd (FRMPD2_2, Q68DX3): 3.76 | pKd (FRMPD4, Q14CM0): below the threshold | pKd (GIPC2, Q8TF65): 4.06 | pKd (GOPC, Q9HD26): 3.7 | pKd (GRID2IP_1, A4D2P6): below the threshold | pKd (GRIP2_6, Q9C0E4): below the threshold | pKd (IL16_4, Q14005): below the threshold | pKd (Inadl_1, Q8NI35): below the threshold | pKd (LDB3, O75112): below the threshold | pKd (LIN7C, Q9NUP9): 4.12 | pKd (MAGI2_2, Q86UL8): 4.26 | pKd (MAGI2_3, Q86UL8): 4.02 | pKd (MPDZ_10, O75970): 3.55 | pKd (MPDZ_12, O75970): below the threshold | pKd (NHERF2_2, Q15599): below the threshold | pKd (NHERF3_1, Q5T2W1): 3.72 | pKd (PARD3B_1, Q8TEW8): below the threshold | pKd (RAPGEF6, Q8TEU7): below the threshold | pKd (SCRIB_1, Q14160): 3.57 | pKd (SNTA1, Q13424): 6.16 | pKd (SNTG1, Q9NSN8): 4.72 | pKd (TJP1_3, Q07157): below the threshold

PPGKHLVTEV [KCNA7, Q96RP8]
pKd (APBA3_1, O96018): below the threshold | pKd (CASK, O14936): below the threshold | pKd (DFNB31_3, Q9P202): 4.01 | pKd (DLG2_2, Q15700): 5.01 | pKd (DLG2_3, Q15700): 4.71 | pKd (DLG5_1, Q8TDM6): below the threshold | pKd (FRMPD2_2, Q68DX3): 4.51 | pKd (FRMPD4, Q14CM0): below the threshold | pKd (GIPC2, Q8TF65): below the threshold | pKd (GOPC, Q9HD26): 3.68 | pKd (GRID2IP_1, A4D2P6): below the threshold | pKd (GRIP2_6, Q9C0E4): below the threshold | pKd (IL16_4, Q14005): below the threshold | pKd (Inadl_1, Q8NI35): below the threshold | pKd (LDB3, O75112): below the threshold | pKd (LIN7C, Q9NUP9): below the threshold | pKd (MAGI2_2, Q86UL8): 4.32 | pKd (MAGI2_3, Q86UL8): 4.22 | pKd (MPDZ_10, O75970): below the threshold | pKd (MPDZ_12, O75970): 3.88 | pKd (NHERF2_2, Q15599): below the threshold | pKd (NHERF3_1, Q5T2W1): below the threshold | pKd (PARD3B_1, Q8TEW8): below the threshold | pKd (RAPGEF6, Q8TEU7): 3.52 | pKd (SCRIB_1, Q14160): 4.72 | pKd (SNTA1, Q13424): 3.95 | pKd (SNTG1, Q9NSN8): 4.35 | pKd (TJP1_3, Q07157): below the threshold
